test: label from the status in PepcDB records

Sequence	protein production
MSAFQAFVVNKTETEFTAGVQTISMDDLPEGDVLVRVHYSSVNYKDGLASIPDGKIVKTYPFVPGIDLAGVVVSSQHPRFREGDEVIATGYEIGVTHFGGYSEYARLHGEWLVPLPKGLTLKEAMAIGTAGFTAALSIHRLEEHGLTPERGPVLVTGATGGVGSLAVSMLAKRGYTVEASTGKAAEHDYLRVLGAKEVLAREDVMAERIRPLDKQRWAAAVDPVGGRTLATVLSRMRYGGAVAVSGLTGGAEVPTTVHPFILRGVSLLGIDSVYCPMDLRLRIWERLAGDLKPDLERIAQEISLAELPQALKRILRGELRGRTVVRLA	not failed
MSAHPLAQLETFKHTSKQWNQLREAANMSNRMEHILQAMPSGVVILNGDGIVTDANPVAVELLEQSLCGARWIDVIHTAFAPQDDDGHEVSLRNGRRVKLAITPLTPEPGQLIVLTDLTETRLLQKNLSHLQRLSALGKMVATLAHQVRTPLSAALLYAANLASPKLSDSAKVKFQQKLVDRLNELERQVNDMLLMAKGRQDELGELINLNDVIENVVANCEPIVAKHGAELTVTNASNGLMLANVNALSSAVNNLVMNSLEAGATQIQLVANEIDDQLHLNVVDNGKGLDAKMQQRVLEPFFTTKAQGTGLGLAVVQSVVRNHGGQLQLNCMPNKGCTVSLTFPQAKSATVLPLEKSHV	failed
MSAIDCIITAAGLSSRMGQWKMMLPWEQGTILDTSIKNALQFCSRIILVTGYRGNELHERYANQSNITIIHNPDYAQGLLTSVKAAVPAVQTEHCFLTHGDMPTLTIDIFRKIWSLRNDGAILPLHNGIPGHPILVSKPCLMQAIQRPNVTNMRQALLMGDHYSVEIENAEIILDIDTPDDFITAKERYTEILEHHHHHH	not failed
MSAKIVTVFNQKGGCGKTTVSMHIAGTLGVRGSKTLLVDMDEQGTATRWAAQAPEEKPFPASVIGLAPSGGAMHREVRKFIADYDYIVVDCPPAVHSPASSSALLISDIAIIPVVPSPPDLWAAVAAKALAQQAQVTNETLRVRVLANMVQRRVSLAKQAIEILGDDGDIPLMESMIGSRSAFRECQAIGATVHGVPGAREAINEVDIMVNEVLQLLREGQA	failed
MSAKSPTPQPPYEIPSFRKRRLITTGLLTITTLWFIYFYVDLVSATTLLTLPVIIAAPLIMVYIWYHEFTYYARVRKNNKLYKALYGHLQNHQHPENTDTPPM	failed
MSALDCPAGTVLFRAGQDCPGFLRLDEGSIRVTLTAANGREVVLYRVRPGDVCLQTFACLTEGRSYSAEGVAETRVRGHLMSHADFRTALARDEAFRTEVMQAVARRFADFEHLVEDVALTGFDTRLARVLLRLAKGDTVAATHEALAAETASGRAFVSRRLAEFARQGLVELARGRVTLCDRSGLERIAAEER	not failed
MSALFLMKTLGLFIATAIAEIVGCYLPYLWLKEGHSVWLLIPAAVSLALFAYLLTLHPAESGRVYAAYGGIYVLTAIVWLRIVDKSPLSNFDLIGTAFVLTGMGILVYGWR	failed
MSALLGILGVVLDARFGEPQGWHPLVAFGRLADRLERRFNRSRLAGEADPGVGWRSHGVTAWVLAVLPLTLLAWALAELPYLGWLVQALALYAALGLRSLGEHAEPVALALRAGDLDEARRRVGYLVSRDTRELDQAGVARAATESVLENGSDAVYAALFWFAVAGAPGVVLYRLSNTLDAMWGYRNARFERFGWAAAKIDDILNYLPARLVALTYALLGDTRQALRCWREQAPQWDSPNAGPVMAAGAGALGVFLGGAAIYHGELHQRPLLGSGPQPQGRDIYRALALVRQGVLLWLLVLAGLWAMGWLHA	failed
MSALPSYTQNGQTITFAFAQPLQLTIVTPEIIRVFINRGEQGESYAIEGHKIQATDFTIESAGDHYIIRTSALTIHLDSERHLDTFDKDGNALITDYRGERIHLKGVDKVHERLVEAEGHSVTKAPTKSDQGYYEIIKSLAPDEYLYGLGDKTGYLNKRGFAYDNWNVDNPAPQLEILPNIYKSIPVMLGLKNGHPYGIFFDNTYQSHLDMGKESNHYYFYSAVQGNLDYYIIGGTTLKDIVTNYTYLTGRTPLPQKWTLGYQQSRWGYSASQEEVQAIADNLAKYDLPCDAIHFDVDYMDGYRVFTWDKDKYQGNPKKFITKLNQQGLKVIPIIDPGVKQDSDYHIYAEGLKKGYFVKSADGDVYINKVWPGNAAFPDFGRPEVRQWWANNGKFLTDLGVAGIWIDMNEPATFEGPIPDDVVFNDQDTPSTHKKMHNVYGHNMAKATYAGLKEQTGNRPFVITRAAYAGTQKYSTVWTGDNRSMWPHIQMMIPQLCNLGLSGFSFTGTDIGGFASDTTSELLTRWIEGAIFSPLLRNHAALGTRQQEPWAFGEPTLNIYRKYLKLRYRLIPYLYDLFAKETKTGLPIMRPVVLNYDQDPRVRDLNDEYMVGDDILVAPVVQKSQFKRLVYLPAGNWVDFWNGAEYAGNQDIVVDTPLDKLPLFVKQNTILPWGPAVSHISDEPLKAMTFRVFGTQGTYQHYQDNGRDFKYQSGEWNNYTITVDHNKVNVQLTHHGYQPVYQQITVELSDHVVKLTYDNDSSCYRE	failed
MSANPDRFLGRAEVYAAARPDYPPALGNELARRGLLRGQVADLGAGTGLFTRLLLQRGAQVIAVEPNPEMREQLLRALAAEVTRGQLRVQSGTAEATGLPGSSVDLLTAAQAAHWFDPAPTRREFQRVLRPGGQVLFVWNDWREADGPFNEAYGAVVAHFSPEEGRVRTRVPRDELAQWFSGAPEELSFDHPLTFTRERLHALAGSVSYLPAPGSERFPELLARLDQAFDRQARQDTVELTYRTFAFLGRV	failed
MSAPAPRSPAGGHEARATARALTLLAIGAGFGFLWLARDLLVPTALGVTLALSVHPVVAALQRRRVSRTVASVAGTLLAVAVLVGIGYVLWGRIAAFADELPGYEGRLREAAAGIRRHAAHLQAQSEQLVQAPRRPGEVKVQEGVPWGSLLVGTAQGALTFAGQATVVVFVLYFTLAEGPRFRTKLLAWADRRPRGRARVLAALEELHRDVEQYMLNRVALNAALGVVTWAVYALYGLEHAAIWGITTALLHFIPYVGPALGLFLPAAMALLQYGTAKDVALVTAIYLVLVNVQGNVVDPLFLGKQLRLSPLVVFLGSLFWFWLWGPVGLFLAVPLLSTVRIVCRHLPRYRVVASLLAE	failed
MSAPRLPVTVLTGFLGAGKTTLLSKLLENNKQRRLAILVNEFGEVSIDGGLLRDGENQGVEIHDLANGLVAYDDDADFLPTMLALWQRRQQIDHVLIETSGLALPSAVMAQLQSEALAPYFVLDATLAVVDTPLLLAGHFAPAGDGGKTDAVAALFDQQLGHADIVVLNKIDALSADQLLAAEEAVRKQAPSIRFIELAYEAKLDTRLTLGLHLHEASPAAHRHYGPVASMPGLAMRPLANQTLLDGHSHGGQAAHSHGLATHKHFHEQDPGWQSFMIRSKEPQCADKLAAALQAIAREEPLLRIKGFAACADSPGRLLAQGVRSRIELSRDDTLAAPRQAQLVFIGYHPSRPRVVALLRDITGAHWSLEHHHHHH	failed
MSAPSSPSTSQTRPPARSLWRRRRTWFLVGGGGLGAAAVVVLLGIWWRSPTPEAAIALRQSDFAELRWQSRFAMDAATRQRARFLYALAIAPDQPQAALQALQGLERSYPLLGPYILKLRAQVQTQLGQDPRETWRQLLNTYPESPVQAEAVLALGQWDLAPATIQRWPRYPASNELARQLAKRQPAEAKRWLLQIAQFGRYRFDIDAVLSELQALPNLTARDRQQIADAYWQRDDYATAADLYARSPQTDETLYRQARSLDLTSQPEVARTLYQQLLQRFPQSPERERALVHLVRLDPANRDRYLQLLERQFALSLPEALGLAAATEPRYRPILLQRFPASPEAAALRWQQAWQQAEAGNLPQAIALVTQTRDRSPTIEAAAQAGFWLGRWQTQLGQTDAAQAAWQWVLQQHPDSYYAWRSAAALGWPVGDFSQVQAQQPAWPQAQSPQALPAGSAVLKELYALGQTEDAWRLWQQEGPSRDPSPSDRFISALLEASISRYDRAASLLKGLPIDSPLRQRSDFVSTLYPVVFKEEITAATQRDRLNPLLVLGLIRQESRFLPGATSVVGARGLMQLMPETAAEVAAELGLQQYDLGDPQTNIQLGSRYLRNVLDYWREDSLFAIASYNAGPGNVENWVRRFGRRDRDRWLEQIPFPETRDYVEKVLSNYWNYLRQSDRSLEQRLQQLDR	failed
MSARMFVLCCIWFIVAFLWITITSALDKEWMIDGRGINNVCDVLMYLEEDDTRDVGVIMTLPLFFPFLWFALWRKKRGWFMYATALAIFGYWLWQFFLRYQFCL	failed

Source: a protein production outcome set (Wang et al. 2014)
